How the values were obtained:
[1] = biological target: SigH (Mycobacterium tuberculosis) (UniProt P9WGH8); details: cited from earlier work
[2] = biological target: T1, Mycobacterium tuberculosis SigH, 6xHis-tagged (pET29a) (Mycobacterium tuberculosis H37Rv, UniProt P9WGH9 1-216); assay: native gel or EMSA; metal free RshA mixed with SigH at equimolar concentrations (3 µM each in the text, 5 µM each in the legend), 50 mM Tris HCl pH 8.0, 100 mM NaCl, 0.01% Triton X-100, 25°C; native gel pH 8.8 and SDS-PAGE, Coomassie; details: both partners purified
T1 construct: no tag removal is told; also called WT SigH; 6xHis:SigH; not shown: His6, C-terminal, kept
T1 sequence (P9WGH9 whole entry): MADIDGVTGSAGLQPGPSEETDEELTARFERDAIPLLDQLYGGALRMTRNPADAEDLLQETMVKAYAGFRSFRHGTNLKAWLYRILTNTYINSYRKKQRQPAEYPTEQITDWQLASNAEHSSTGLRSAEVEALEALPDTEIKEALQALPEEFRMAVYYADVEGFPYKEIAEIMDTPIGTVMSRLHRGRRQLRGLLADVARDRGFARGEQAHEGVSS

Sequence of SigH (Mycobacterium tuberculosis) (P9WGH8 whole entry): as the sequence (P9WGH9 whole entry) above

Molecule | Kd [1] [nM] | binding result [2]
RshA (from UniProt P9WJ68) | 15 | –
Mycobacterium tuberculosis anti-sigma factor RshA, 6xHis-tagged (pET29a) (natural protein, also called WT RshA; 6xHis:RshA; not shown: His6, C-terminal, kept) MSENCGPTDAHADHDDSHGGMGCAEVIAEVWTLLDGECTPETRERLRRHLEACPGCLRHYGLEERIKALIGTKCRGDRAPEGLRERLRLEIRRTTIIRGGP | – | binds

Source: article PMC3427169, “Interaction of Mycobacterium tuberculosis RshA and SigH Is Mediated by Salt Bridges” (PLoS ONE, 2012)
